Target: T1, 6xHis-tagged, recombinant human CD30 (Sino Biological Inc., order #10777-H08H) (human, UniProt P28908 19-379)
T1 construct: Bought soluble reagent; It was detected with biotinylated anti-His-tag antibody and streptavidin-PE; also called CD30 antigen; CD30-6xHis
T1 sequence: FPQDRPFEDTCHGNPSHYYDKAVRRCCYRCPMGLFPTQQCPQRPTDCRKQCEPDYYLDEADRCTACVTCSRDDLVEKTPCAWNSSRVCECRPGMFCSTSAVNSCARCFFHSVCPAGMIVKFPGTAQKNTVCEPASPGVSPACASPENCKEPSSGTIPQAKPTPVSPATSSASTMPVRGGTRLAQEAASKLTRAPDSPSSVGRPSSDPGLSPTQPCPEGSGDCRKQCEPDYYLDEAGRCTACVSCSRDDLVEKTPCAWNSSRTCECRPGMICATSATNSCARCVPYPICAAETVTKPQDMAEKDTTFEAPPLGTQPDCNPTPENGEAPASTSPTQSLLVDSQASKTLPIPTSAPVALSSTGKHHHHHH
Assay: flow cytometry; 63-12 cells displaying anti-CD19 IgG as background, stained with His-tagged CD30 / anti-His-biotin / strep-PE
Protocol: After the final FACS staining, the cells were again washed twice in ice-cold PBS, 2% FCS, and then resuspended in 1.0 ml PBS, 2% FCS, after which the cells were subjected to FACS analysis and cell sorting of Ig-kappaLC/CD30 positive cells (see FIG. 13).

- binding result: no binding (tested: 0.1 µg CD30 in 1 ml)
B1: humanized anti-human CD19 antibody hBU12, membrane bound human IgG1 on the surface of 63-12 proB cells (antibody, V domains shown)
VH: QVQLQESGPGLVKPSQTLSLTCTVSGGSISTSGMGVGWIRQHPGKGLEWIGHIWWDDDKRYNPALKSRVTISVDTSKNQFSLKLSSVTAADTAVYYCARMELWSYYFDYWGQGTLVTVSS
VL: EIVLTQSPATLSLSPGERATLSCSASSSVSYMHWYQQKPGQAPRLLIYDTSKLASGIPARFSGSGSGTDFTLTISSLEPEDVAVYYCFQGSVYPFTFGQGTKLEIK
notes: also called anti-CD19 mAb hBU12; anti-CD19 mAb

Source: patent US20150152406A1 (NBE THERAPEUTICS, published 2015)
